In US20260242492A1 (JOINT STOCK COMPANY BIOCAD, published 2026):

T1: biotinylated peptide [NH2]CEPANPSEKNSPSTQYCYSIQS[CH2CH2]biotin comprising a fragment of the human CD20 … (human, [NH2] at the N-terminus; [CH2CH2]biotin at the C-terminus (so in the source))
T1 construct: Immobilized on streptavidin (SAX) sensors; also called CD20 peptide
T1 peptide: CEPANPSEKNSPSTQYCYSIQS

B1: antibody-like molecule 08-001 (binds PD1 and CD20) (bispecific antibody, human IgG1, kappa, L234A L235A)
heavy 1: QVQLVQSGGGLVQPGGSLRLSCAASGFTFSSYWMYWVRQVPGKGLEWVSAIDTGGGRTYYADSVKGRFAISRVNAKNTMYLQMNSLRAEDTAVYYCARDEGGGTGWGVLKDWPYGLDAWGQGTLVTVSSASTKGPSVFPLAPSSKSTSGGTAALGCLVKDYFPEPVTVSWNSGALTSGVHTFPAVLQSSGLYSLSSVVTVPSSSLGTQTYICNVNHKPSNTKVDKRVEPKSCDKTHTCPPCPAPEAAGGPSVFLFPPKPKDTLYITREPEVTCVVVDVSHEDPEVKFNWYVDGVEVHNAKTKPREEQYNSTYRVVSVLTVLHQDWLNGKEYKCKVSNKALPAPIEKTISKAKGQPREPQVCTLPPSRDELTKNQVSLSCAVKGFYPSDIAVEWESNGQPENNYKTTPPVLDSDGSFFLVSKLTVDKSRWQQGNVFSCSVMHEALHNHYTQKSLSLSPGK
light 1: QPVLTQPLSVSVALGQTARITCGGNNIGSKNVHWYQQKPGQAPVLVIYRDSNRPSGIPERFSGSNSGNTATLTISRAQAGDEADYYCQVWDSSTAVFGTGTKLTVLQRTVAAPSVFIFPPSDEQLKSGTASVVCLLNNFYPREAKVQWKVDNALQSGNSQESVTEQDSKDSTYSLSSTLTLSKADYEKHKVYACEVTHQGLSSPVTKSFNRGEC
heavy 2: not shown
light 2: DIQMTQSPSSLSASVGDRVTITCRASSSVSYMHWYQQKPGKAPKPLIYAPSNLASGVPSRFSGSGSGTDFTLTISSLQPEDFATYYCQQWSFNPPTFGQGTKVEIKQRQVKPEAWLSKGPSPGPGRLQLVCHVSGFYPKPVWVMWMRGEQEQQGTQLGDILPNADWTWYLRATLDVADGEAAGLSCRVKHSSLEGQDIILYWRGSC
B2: antibody-like molecule 08-002 (binds CD20 and PD1) (bispecific antibody, human IgG1, kappa, L234A L235A)
heavy 1: EVQLVESGGGLVQPGGSLRLSCAASGYTFTSYNMHWVRQAPGKGLEWVGAIYPGNGDTSYNQKFKGRFTISVDKSKNTLYLQMNSLRAEDTAVYYCARVVYYSNSYWYFDVWGQGTLVTVSSASTKGPSVFPLAPSSKSTSGGTAALGCLVKDYFPEPVTVSWNSGALTSGVHTFPAVLQSSGLYSLSSVVTVPSSSLGTQTYICNVNHKPSNTKVDKRVEPKSCDKTHTCPPCPAPEAAGGPSVFLFPPKPKDTLYITREPEVTCVVVDVSHEDPEVKFNWYVDGVEVHNAKTKPREEQYNSTYRVVSVLTVLHQDWLNGKEYKCKVSNKALPAPIEKTISKAKGQPREPQVCTLPPSRDELTKNQVSLSCAVKGFYPSDIAVEWESNGQPENNYKTTPPVLDSDGSFFLVSKLTVDKSRWQQGNVFSCSVMHEALHNHYTQKSLSLSPGK
light 1: DIQMTQSPSSLSASVGDRVTITCRASSSVSYMHWYQQKPGKAPKPLIYAPSNLASGVPSRFSGSGSGTDFTLTISSLQPEDFATYYCQQWSFNPPTFGQGTKVEIKRTVAAPSVFIFPPSDEQLKSGTASVVCLLNNFYPREAKVQWKVDNALQSGNSQESVTEQDSKDSTYSLSSTLTLSKADYEKHKVYACEVTHQGLSSPVTKSFNRGEC
heavy 2: not shown
light 2: QPVLTQPLSVSVALGQTARITCGGNNIGSKNVHWYQQKPGQAPVLVIYRDSNRPSGIPERFSGSNSGNTATLTISRAQAGDEADYYCQVWDSSTAVFGTGTKLTVLQQRQVKPEAWLSKGPSPGPGRLQLVCHVSGFYPKPVWVMWMRGEQEQQGTQLGDILPNADWTWYLRATLDVADGEAAGLSCRVKHSSLEGQDIILYWRGSC
notes: Four distinct chains: Ocrelizumab Fab arm (hole) and Prolgolimab Fab-like arm with b2m/CD1b alpha3 dimerization unit (knob)

Key:
[1] = molecular target: T1, biotinylated peptide …; test: BLI (Octet RED 384), biotinylated CD20 peptide on SAX sensors, antibody-like molecule as analyte, 1:1 model, global fit
Protocol: (§1) Experiments were carried out using a kinetic buffer solution (hereinafter referred to as 1×KB); volume fraction of added Tween 20 was 0.1%; mass fraction of added BSA (bovine serum albumin) was 0.1%; pH 7.4. Before the measurement, the ProA sensors were regenerated with a solution of 50 mM glycine and hydrochloric acid, pH 1.8 (5 seconds in the regenerating solution, 5 seconds in 1×KB, three repetitions).
In the case of biotinylated […], the peptide at a concentration of 2.5 μg/ml was immobilized on the surface of SAX sensors (High Precision Streptavidin (SAX) biosensors, ForteBio) for 300 seconds. The baseline was recorded in a 1×KB solution for 120 seconds. Sensors loaded with peptide were then immersed into wells containing the solution of antibody-like molecule (analyte) in 1×KB for 300 seconds. Measurements were performed for solutions with analyte (antibody-like molecule in case of CD20 peptide) at concentrations […] and 75 µg/ml. Complex dissociation was recorded in 1×KB for 60 seconds.
(§2) To obtain numerical values of kinetic constants (kon is the on/association rate constant, kdis is the dissociation rate constant, KD is the equilibrium dissociation constant or affinity constant), the resulting sensograms were processed according to the 1:1 interaction model using Global Fit (selection of one set of kon, kdis, KD constants to analyze several sensograms of different concentrations) of the ForteBio Octet Data Analysis 9.0 software.

[2] = molecular target: T2, extracellular domain of the human PD-1 protein (hPD1ex-H6F) (human, UniProt Q15116 21-170); test: BLI (Octet RED 384), antibody-like molecule on ProA sensors, hPD1ex-H6F analyte 485.4 nM, 1:1 model
T2 construct: Made in CHO cells, molecular weight 20.6 kDa as printed; also called hPDlex-H6F
Protocol: as §1
In the case of the hPDlex-H6F and hCSF1R_His antigens, the Protein A (ProA) biosensors (ForteBio) were immersed in a solution with antibody-like molecules at a concentration of 10 µg/ml for 300 seconds to immobilize same. The baseline was recorded in 1×KB for 120 seconds. Sensors loaded with the antibody-like molecule were then immersed into wells containing a solution of the target antigen (analyte) in a kinetic buffer for 300 seconds. Measurements were performed for solutions with hPDlex-H6F analyte at concentrations of 10 µg/ml (485.4 nM), for solutions with hCSF1R_His analyte at concentrations of 10 µg/ml (174.2 nM). Complex dissociation in 1×KB was then detected for 600 seconds.
as §2

T2 sequence (Q15116 21-170 limits assumed, form in doubt): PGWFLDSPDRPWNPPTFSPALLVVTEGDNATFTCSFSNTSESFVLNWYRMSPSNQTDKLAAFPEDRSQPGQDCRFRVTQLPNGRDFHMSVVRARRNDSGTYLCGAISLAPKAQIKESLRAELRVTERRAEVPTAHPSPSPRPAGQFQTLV

Row | Binder | Kd [1] [nM] | koff [1] [s⁻¹] | kon [1] [M⁻¹ s⁻¹] | Kd [2] [nM] | koff [2] [s⁻¹] | kon [2] [M⁻¹ s⁻¹]
1 | B1 | 848 | 0.139 | 164000 | 15.9 | 0.000601 | 37800
2 | B2 | 845 | 0.0986 | 117000 | 16.9 | 0.000658 | 39000
